From a protein production outcome set (Wang et al. 2014)

Experiment: label from the status in PepcDB records

| Sequence | protein production |
| --- | --- |
| ANVKLLLPYILKWEGGFVHDPADAGGATNKGVTIATWKRVGYDKDGDGDIDVEDLKLLTDDDVLNRVLKPFYWDRWKADLIESQKVANILVDWVWGSGKYGIVIPQRILGVQADGIVGNKTLQAVNSADPDELFESIFDARREFLEDITARSIKKYEDSIGRKATERELLRHTNKRFLRGWLNRLEDIRKL | not failed |
| MDAKETSATDLKRPREEDDNGGAATMETENGDQKKEPACFSTVIPGWFSEMSPMWPGEAHSLKVEKVLFQGKSDYQDVIVFQSATYGKVLVLDGVIQLTERDECAYQEMITHLPLCSIPNPKKVLVIGGGDGGVLREVARHASIEQIDMCEIDKMVVDVSKQFFPDVAIGYEDPRVNLVIGDGVAFLKNAAEGSYDAVIVDSSDPIGPAKELFEKPFFQSVARALRPGGVVCTQAESLWLHMDIIEDIVSNCREIFKGSVNYAWTSVPTYPSGVIGFMLCSTEGPDVDFKHPLNPIDESSSKSNGPLKFYNAEIHSAAFCLPSFAKKVIESKAN | failed |
| MSLSKTFLNELANQALTNPNDFTKGEKKQESFLLEYVSANPTGPLHIGHARGAVFGDTLTRLARHLGYKFNTEYYVNDAGNQIYLLGLSILLSVKESILHENVEYPEQYYKGEYIVDLAKEAFEKFGKEFFSEENIPSLADWAKDKMLVLIKQNLEQAKIKIDSYVSERSYYDALNATLESLKEHKGIYEQEGKIWLASSQKGDEKDRVIIREDGRGTYLAADIVYHKDKMSRGYGKCINIWGADHHGYIPRMKAAMEFLGFDSNNLEIILAQMVSLLKDGEPYKMSKRAGNFILMSDVVDEIGSDALRYIFLSKKCDTHLEFDISDLQKEDSSNPVYYINYAHARIHQVFAKAGKKIDDVMKADLQSLNQDGVNLLFEALNLKAVLNDAFEARALQKIPDYLKNLAANFHKFYNENKVVGSANENDLLKLFSLVALSIKTAFSLMGIEAKNKMEHEGHHHHHH | not failed |
| MRVALTIAGSDSGGGAGVQADLKVFFRFGVYGTSALTLVTAQNTLGVQRVHLLPPEVVYAQIESVAQDFPLHAAKTGALGDAAIVEAVAEAVRRFGVRPLVVDPVMVAKSGDPLLAKEAAAALKERLFPLADLVTPNRLEAEALLGRPIRTLKEAEEAAKALLALGPKAVLLKGGHLEGEEAVDLLATRGGVLRFSAPRVHTRNTHGTGCTLSAAIAALLAKGRPLAEAVAEAKAYLTRALKTAPSLGHGHGPLDHWA | not failed |
| MRNVIAAVMASTLALSAYSQAAEVVTSVNWLPGDEGGQRGSQSHMFDGISLTEQQRQQLRDLMQRARHDRLPVNVSEMETMHRLVTAENFDENAVRAQAEKMAQEQVARQVEMAKVRNQMYHLLTPEQQAVLNAKHQQRMDQLREVARMQKGSAMMLSSSSNTLQPQ | failed |
| MNTLSIYRFKQWLKEGESPLALTLFRIAKSIRHFELPTPRLLNKVLYGLHKTLCTQWQAFTHLIFYVPAFKGRLESYGKRTLLYGGLPFFSGPLTMRIGNDCRISGQTTFSGRTNSDNPTLEVGDNVDICWQTTIAVGNKVIIGNNVRIAGQGFLCGYPGHPIDPTERALGKPDLDSQVGDIILEQDVWLGSRVSIIGNVTVGEGTIVASGSVVTKSLPPFVLAAGNPAKVIKKLDVNASNTIKEEIHYEA | failed |
| MNRSANTNAVLLLLLCAFFWGASFPVGKHALGEVHALTLVIWRFAIAAACLFAFIKWKRIPIPELKAKQWLWVVGVSIVGVGGLNLGLFTGLAQTNASNGALIMALSPLTTSLIGSLLQRKLLTRGAVFSLVVCLSGVLLVLTNGELKRLLSFEFNHGDQIIFLGMLCWSLYTYLTQGISRWMPMIPYTFIGMLAGLGVISVVAAFSAEAHPVQESLAISQIVLADLLFIGVFGTVGGYLLWISGVKQLGAANASLFFNFVPIFAALTAVTFGQNVASLQLLGMAIVISGLLLPRLTHWRQQRFARMG | failed |
| MKKKSFSIVIAGGGSTFTPGIVLMLLDHLEEFPIRKLKLYDNDKERQDRIAGACDVFIREKAPDIEFAATTDPEEAFTDVDFVMAHIRVGKYAMRALDEQIPLKYGVVGQETCGPGGIAYGMRSIGGVLEILDYMEKYSPDAWMLNYSNPAAIVAEATRRLRPNSKILNICDMPVGIEDRMAQILGLSSRKEMKVRYYGLNHFGWWTSIQDQEGNDLMPKLKEHVSQYGYIPKTEAEAVEASWNDTFAKARDVQAADPDTLPNTYLQYYLFPDDMVKKSNPNHTRANEVMEGREAFIFSQCDMITREQSSENSEIKIDDHASYIVDLARAIAYNTGERMLLIVENNGAIANFDPTAMVEVPCIVGSNGPEPITVGTIPQFQKGLMEQQVSVEKLTVEAWAEKSFQKLWQALILSKTVPNARVARLILEDLVEANKDFWPELDQSPTRIS | not failed |
